Source: the supplement of paper PMC9112550, “Optimization of the antimicrobial peptide Bac7 by deep mutational scanning” (BMC Biology, 2022)

What follows are sequences tested on Escherichia coli TOP10 (assay: shrunken log2 fold change of peptide-encoding DNA abundance (4.5 h post-induction vs induction); higher = less antimicrobial activity (less host growth inhibition)). Settings: time post-induction: 4.5 h; library: site-saturation at positions 5, 18, 19, 20.
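Further: peptides expressed intracellularly from a pBAD plasmid library in pooled LB shake-flask culture, induced with 0.3% L-arabinose, DNA abundance read by NGS, three biological replicates, DESeq2 with apeglm shrinkage.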

Row | Sequence | shrunken log2 fold change
1 | RRIRYRPPRLPRPRPRPIKRPRP | -0.767
2 | RRIRYRPPRLPRPRPRPILLPRP | -0.322
3 | RRIRYRPPRLPRPRPRPILRPRP | -0.172
4 | RRIRYRPPRLPRPRPRPIMLPRP | -3.12
5 | RRIRYRPPRLPRPRPRPINAPRP | -0.469
6 | RRIRYRPPRLPRPRPRPINFPRP | -0.299
7 | RRIRYRPPRLPRPRPRPINIPRP | -1.21
8 | RRIRYRPPRLPRPRPRPIPCPRP | -0.156
9 | RRIRYRPPRLPRPRPRPIPRPRP | 0.0268
10 | RRIRYRPPRLPRPRPRPIQIPRP | -0.409
11 | RRIRYRPPRLPRPRPRPIQNPRP | -0.219
12 | RRIRYRPPRLPRPRPRPIQRPRP | -0.00865
13 | RRIRYRPPRLPRPRPRPIQTPRP | -0.499
14 | RRIRYRPPRLPRPRPRPIRFPRP | -0.0383
15 | RRIRYRPPRLPRPRPRPIRKPRP | -0.0667
16 | RRIRYRPPRLPRPRPRPIRNPRP | -1.17
17 | RRIRYRPPRLPRPRPRPIRSPRP | -0.214
18 | RRIRYRPPRLPRPRPRPITCPRP | 0.014
19 | RRIRYRPPRLPRPRPRPITLPRP | -0.323
20 | RRIRYRPPRLPRPRPRPITSPRP | 0.0314
21 | RRIRYRPPRLPRPRPRPIVQPRP | -0.121
22 | RRIRYRPPRLPRPRPRPIWHPRP | -1.23
23 | RRIRYRPPRLPRPRPRPIWLPRP | -0.175
24 | RRIRYRPPRLPRPRPRPIYPPRP | -0.559
25 | RRIRYRPPRLPRPRPRPKCMPRP | -0.841

Row | Sequence | shrunken log2 fold change
26 | RRIRYRPPRLPRPRPRPKCNPRP | -0.533
27 | RRIRYRPPRLPRPRPRPKDNPRP | -0.75
28 | RRIRYRPPRLPRPRPRPKEKPRP | -0.0829
29 | RRIRYRPPRLPRPRPRPKFAPRP | -0.44
30 | RRIRYRPPRLPRPRPRPKGAPRP | 0.194
31 | RRIRYRPPRLPRPRPRPKHAPRP | -0.0577
32 | RRIRYRPPRLPRPRPRPKIHPRP | -1.18
33 | RRIRYRPPRLPRPRPRPKIPPRP | -0.21
34 | RRIRYRPPRLPRPRPRPKMPPRP | -0.206
35 | RRIRYRPPRLPRPRPRPKNAPRP | -0.186
36 | RRIRYRPPRLPRPRPRPKNHPRP | -0.919
37 | RRIRYRPPRLPRPRPRPKPQPRP | -0.115
38 | RRIRYRPPRLPRPRPRPKPRPRP | 0.515
39 | RRIRYRPPRLPRPRPRPKQCPRP | -0.17
40 | RRIRYRPPRLPRPRPRPKRGPRP | 0.00607
41 | RRIRYRPPRLPRPRPRPKSQPRP | -0.176
42 | RRIRYRPPRLPRPRPRPKSTPRP | -0.634
43 | RRIRYRPPRLPRPRPRPKTPPRP | 0.103
44 | RRIRYRPPRLPRPRPRPKVDPRP | -0.079
45 | RRIRYRPPRLPRPRPRPKYFPRP | -0.314
46 | RRIRYRPPRLPRPRPRPKYHPRP | -2.19
47 | RRIRYRPPRLPRPRPRPLAAPRP | 0.153
48 | RRIRYRPPRLPRPRPRPLCTPRP | -0.759
49 | RRIRYRPPRLPRPRPRPLFCPRP | -0.579
50 | RRIRYRPPRLPRPRPRPLIHPRP | -1.38

Row | Sequence | shrunken log2 fold change
51 | RRIRYRPPRLPRPRPRPLKEPRP | 0.0179
52 | RRIRYRPPRLPRPRPRPLKPPRP | -0.696
53 | RRIRYRPPRLPRPRPRPLKTPRP | 0.0308
54 | RRIRYRPPRLPRPRPRPLLCPRP | -0.287
55 | RRIRYRPPRLPRPRPRPLMNPRP | -0.217
56 | RRIRYRPPRLPRPRPRPLMVPRP | -0.439
57 | RRIRYRPPRLPRPRPRPLMYPRP | -0.48
58 | RRIRYRPPRLPRPRPRPLNCPRP | -0.295
59 | RRIRYRPPRLPRPRPRPLNDPRP | -0.0303
60 | RRIRYRPPRLPRPRPRPLNLPRP | -0.369
61 | RRIRYRPPRLPRPRPRPLNNPRP | -1.29
62 | RRIRYRPPRLPRPRPRPLNVPRP | 0.0468
63 | RRIRYRPPRLPRPRPRPLNWPRP | -0.594
64 | RRIRYRPPRLPRPRPRPLPLPRP | -0.197
65 | RRIRYRPPRLPRPRPRPLPNPRP | -0.296
66 | RRIRYRPPRLPRPRPRPLQCPRP | -0.344
67 | RRIRYRPPRLPRPRPRPLQSPRP | 0.00494
68 | RRIRYRPPRLPRPRPRPLRQPRP | 0.0273
69 | RRIRYRPPRLPRPRPRPLRYPRP | -0.426
70 | RRIRYRPPRLPRPRPRPLVVPRP | -0.72
71 | RRIRYRPPRLPRPRPRPLYGPRP | -0.82
72 | RRIRYRPPRLPRPRPRPMAFPRP | -0.557
73 | RRIRYRPPRLPRPRPRPMCPPRP | -0.217
74 | RRIRYRPPRLPRPRPRPMFMPRP | -1.22
75 | RRIRYRPPRLPRPRPRPMFWPRP | -0.0534

Row | Sequence | shrunken log2 fold change
76 | RRIRYRPPRLPRPRPRPMGCPRP | -0.0637
77 | RRIRYRPPRLPRPRPRPMGEPRP | 0.0325
78 | RRIRYRPPRLPRPRPRPMHYPRP | -1.03
79 | RRIRYRPPRLPRPRPRPMKMPRP | -0.528
80 | RRIRYRPPRLPRPRPRPMLVPRP | -0.176
81 | RRIRYRPPRLPRPRPRPMNIPRP | -0.124
82 | RRIRYRPPRLPRPRPRPMNPPRP | 0.02
83 | RRIRYRPPRLPRPRPRPMPTPRP | 0.0288
84 | RRIRYRPPRLPRPRPRPMRAPRP | 0.605
85 | RRIRYRPPRLPRPRPRPMSAPRP | -0.0208
86 | RRIRYRPPRLPRPRPRPMSVPRP | -0.0288
87 | RRIRYRPPRLPRPRPRPMTCPRP | -0.122
88 | RRIRYRPPRLPRPRPRPMTGPRP | 0.0192
89 | RRIRYRPPRLPRPRPRPMWVPRP | -0.0664
90 | RRIRYRPPRLPRPRPRPMYCPRP | -0.00674
91 | RRIRYRPPRLPRPRPRPMYIPRP | -0.0194
92 | RRIRYRPPRLPRPRPRPMYNPRP | -1.23
93 | RRIRYRPPRLPRPRPRPNAGPRP | -0.31
94 | RRIRYRPPRLPRPRPRPNCQPRP | -0.0282
95 | RRIRYRPPRLPRPRPRPNCVPRP | -0.0116
96 | RRIRYRPPRLPRPRPRPNDGPRP | -0.0117
97 | RRIRYRPPRLPRPRPRPNEIPRP | -0.807
98 | RRIRYRPPRLPRPRPRPNEPPRP | 0.00196
99 | RRIRYRPPRLPRPRPRPNFVPRP | -0.0161
100 | RRIRYRPPRLPRPRPRPNGTPRP | -0.424

Row | Sequence | shrunken log2 fold change
101 | RRIRYRPPRLPRPRPRPNIHPRP | -0.98
102 | RRIRYRPPRLPRPRPRPNKNPRP | -0.935
103 | RRIRYRPPRLPRPRPRPNLMPRP | -0.617
104 | RRIRYRPPRLPRPRPRPNLQPRP | -0.614
105 | RRIRYRPPRLPRPRPRPNMCPRP | 0.00841
106 | RRIRYRPPRLPRPRPRPNNQPRP | -1.05
107 | RRIRYRPPRLPRPRPRPNPMPRP | -0.788
108 | RRIRYRPPRLPRPRPRPNPPPRP | 0.0395
109 | RRIRYRPPRLPRPRPRPNRWPRP | 0.135
110 | RRIRYRPPRLPRPRPRPNSVPRP | -0.257
111 | RRIRYRPPRLPRPRPRPNTHPRP | -1.02
112 | RRIRYRPPRLPRPRPRPNWVPRP | -0.443
113 | RRIRYRPPRLPRPRPRPNYEPRP | -0.399
114 | RRIRYRPPRLPRPRPRPPAWPRP | -0.0773
115 | RRIRYRPPRLPRPRPRPPCYPRP | -0.378
116 | RRIRYRPPRLPRPRPRPPDCPRP | -0.00396
117 | RRIRYRPPRLPRPRPRPPDFPRP | -0.136
118 | RRIRYRPPRLPRPRPRPPENPRP | -0.145
119 | RRIRYRPPRLPRPRPRPPERPRP | 0.251
120 | RRIRYRPPRLPRPRPRPPFCPRP | -0.332
121 | RRIRYRPPRLPRPRPRPPGGPRP | 0.259
122 | RRIRYRPPRLPRPRPRPPGKPRP | 0.157
123 | RRIRYRPPRLPRPRPRPPGSPRP | 0.0125
124 | RRIRYRPPRLPRPRPRPPGTPRP | -0.146
125 | RRIRYRPPRLPRPRPRPPHCPRP | -0.396

Row | Sequence | shrunken log2 fold change
126 | RRIRYRPPRLPRPRPRPPHIPRP | -0.808
127 | RRIRYRPPRLPRPRPRPPIYPRP | -0.676
128 | RRIRYRPPRLPRPRPRPPKCPRP | -0.813
129 | RRIRYRPPRLPRPRPRPPKQPRP | -0.0678
130 | RRIRYRPPRLPRPRPRPPMPPRP | 0.0328
131 | RRIRYRPPRLPRPRPRPPMQPRP | -0.0424
132 | RRIRYRPPRLPRPRPRPPPCPRP | 0.574
133 | RRIRYRPPRLPRPRPRPPQFPRP | -0.213
134 | RRIRYRPPRLPRPRPRPPQHPRP | -0.171
135 | RRIRYRPPRLPRPRPRPPQSPRP | -0.118
136 | RRIRYRPPRLPRPRPRPPQVPRP | -0.0496
137 | RRIRYRPPRLPRPRPRPPREPRP | -0.0166
138 | RRIRYRPPRLPRPRPRPPRWPRP | 0.466
139 | RRIRYRPPRLPRPRPRPPSGPRP | 0.0974
140 | RRIRYRPPRLPRPRPRPPSIPRP | -0.285
141 | RRIRYRPPRLPRPRPRPPSTPRP | -0.294
142 | RRIRYRPPRLPRPRPRPPTDPRP | -0.181
143 | RRIRYRPPRLPRPRPRPPVLPRP | -0.132
144 | RRIRYRPPRLPRPRPRPPVVPRP | 0.00632
145 | RRIRYRPPRLPRPRPRPPYEPRP | -0.0831
146 | RRIRYRPPRLPRPRPRPPYNPRP | -1.41
147 | RRIRYRPPRLPRPRPRPQAGPRP | 0.00284
148 | RRIRYRPPRLPRPRPRPQAIPRP | -0.066
149 | RRIRYRPPRLPRPRPRPQDPPRP | -0.0639
150 | RRIRYRPPRLPRPRPRPQEKPRP | -0.0798
